According to paper PMC10071571, “Site‐directed mutagenesis improves the practical application of L‐glutamic acid decarboxylase in Escherichia coli” (Engineering in Life Sciences, 2023):

T1: Gad B (Escherichia coli, UniProt P69910)
T1 construct: gene gadB; full length (1401 bp), pET-30a(+) His tag, expressed in E. coli BL21(DE3), Ni-NTA purified; about 53 kDa on SDS-PAGE; homo-hexamer
T1 sequence (P69910 1-466): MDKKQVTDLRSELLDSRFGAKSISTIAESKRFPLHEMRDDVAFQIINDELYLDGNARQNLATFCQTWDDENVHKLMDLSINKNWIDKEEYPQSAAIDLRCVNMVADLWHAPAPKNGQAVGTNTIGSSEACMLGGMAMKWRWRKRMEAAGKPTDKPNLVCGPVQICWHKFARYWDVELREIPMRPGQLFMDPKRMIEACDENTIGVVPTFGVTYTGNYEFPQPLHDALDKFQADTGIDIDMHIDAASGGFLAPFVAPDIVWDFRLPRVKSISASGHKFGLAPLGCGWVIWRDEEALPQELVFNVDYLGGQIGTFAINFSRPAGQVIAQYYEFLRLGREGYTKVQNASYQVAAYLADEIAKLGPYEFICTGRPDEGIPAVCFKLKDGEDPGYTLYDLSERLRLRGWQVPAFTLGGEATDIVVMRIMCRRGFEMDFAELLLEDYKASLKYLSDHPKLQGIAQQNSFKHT

B1: Gad B (Escherichia coli K-12) (protein)
chain: T1 sequence (P69910 1-466)
notes: full length (1401 bp), pET-30a(+) His tag, expressed in E. coli BL21(DE3), Ni-NTA purified; about 53 kDa on SDS-PAGE; homo-hexamer

Assays:
Gad B = target: T1, Gad B; experiment: GABA formation at varied PLP concentration (HPLC); format: biochemical; details: coenzyme added to L-glutamate reaction; no constant
N[C@@H](CCC(=O)O)C(=O)O = test system: T2, N[C@@H](CCC(=O)O)C(=O)O; experiment: HPLC of GABA formed; Lineweaver-Burk plot; format: biochemical, Escherichia coli; details: substrate buffer with 0.05 mM PLP, phosphate buffer, 30 min, pH and temperature of the kinetics not given (optimum pH 4.3, 37 °C)
T2 construct: full length (1401 bp), pET-30a(+) His tag, expressed in E. coli BL21(DE3), Ni-NTA purified; about 53 kDa on SDS-PAGE; homo-hexamer
Source text: (§1) HPLC of GABA formed; Lineweaver-Burk plot on Gad B

[1] = substrate: N[C@@H](CCC(=O)O)C(=O)O; experiment: HPLC of GABA formed; Lineweaver-Burk plot; format: biochemical, Escherichia coli; details: substrate buffer with 0.05 mM PLP, phosphate buffer, 30 min, pH and temperature of the kinetics not given (optimum pH 4.3, 37 °C)
Source text: as §1

Row | Molecule | GABA formation at varied PLP concentration (HPLC) (Gad B) | Km (N[C@@H](CCC(=O)O)C(=O)O) [mM] | Vmax (N[C@@H](CCC(=O)O)C(=O)O) [µmol/min/mg] | Km [1] [mM] | Vmax [1] [µmol/min/mg]
1 | Cc1ncc(COP(=O)(O)O)c(C=O)c1O [PLP] | enzyme activity of wild‐type Gad B and Gad B‐T62S mutants was highest when using the coenzyme PLP | – | – | – | –
2 | Gad B (Escherichia coli K-12; Q309A) | – | 7.2 ± 3.8 | 87.3 | – | –
3 | Gad B (Escherichia coli K-12; T62S) | – | 7.3 ± 2.5 | 76.1 | – | –
4 | B1 | – | – | – | 11.3 ± 2.1 | 32.1
